In the series the test system is Huh7 cells. In words: Luciferase expression from PB1-MinTK construct in Huh7 cells transfected with CAR plasmid, induction by TCPOBOP. The class given is cell-based, human. An excerpt: • Huh7 cells which are a human liver cell line • DPBS: without CaCl2, without MgCl2 (Gibco, 14190-094) • DMEM (Sigma, D6546) • FBS (Sigma, F9665) • Pen-Strep (Sigma, P4333) • Promega Fugene-HD (E2311) • TCPOBOP (Sigma, T2320) • CITCO (Cayman Chemicals Company, 16027) • pcDNA6 plasmid which contains the β-galactosidase gene used as internal control for transfection efficiency (Thermofisher, V22020) • mouse CAR expression plasmid from Jouan et al, 2016 (BioCat GmbH, EX-Z4288-M51-10-GC). This was used as Huh7 is CAR deficient. • β-galactosidase substrate solution (Thermofisher, 75707/75710) • Pierce BCA kit (23225) • LARII (Dual Luciferase Reporter 1000 assay system, Promega, E1980) • EPO ELISA kit (Abcam, ab119522) Method: Day 1 • Cells were seeded onto a 48 well plate at a density of 25,000 cells/300 μl Day 2 • On the day of transfection, DNA to be transfected (CAR plasmid/PB1-MinTK operably linked with luciferase or EPO/pcDNA6 plasmid for internal control) was diluted to a 100 ng/μl stock solution. Per 48 Well Transfection: • 45 ng of DNA (15 ng of each plasmid, pcDNA6, CAR and test plasmid) was mixed with 4.1 μl of Optimem medium. • 0.5 μl of Fusion HD was mixed with 4 μl of Optimem medium. • These 2 solutions were mixed and incubated at room temperature for 15 minutes. • The final solution was then added to the well drop wise. • 3 hrs after transfection, the inducer TCPOBOP was added to the appropriate wells at the indicated concentration. Day 3 • 24 hrs after induction the media was removed from the cells. • The cells were washed once in 300 μl of DPBS • Cells were lysed using 100 μl of passive lysis buffer and incubation with rocking for 15 minutes • The cell debris was pelleted by centrifugation of the plate at max speed in a benchtop centrifuge for 1 min • For luciferase, 10 μl sample was transferred into white 96-well plate and luminescence measured by injection of 50 μl of LARII substrate. • β-galactosidase activity was measured as per manufacturer's instructions (Mammalian β-Galactosidase Assay Kit, 75707/75710, Thermo Scientific) using 25 μl of lysate. 25 μl of lysate was transferred into a microplate well and mixed with 25 μl of β-galactosidase Assay Reagent, equilibrated to room temperature. The mixture was incubated at 37° C. for 30 min and absorbance measured at 405 nm. • Protein concentration was measured as per manufacturer's instructions (Pierce™ BCA Protein Assay Kit, 23225/23227, Thermo Scientific) using 25 μl of lysate. 25 μl of lysate was transferred into a microplate well and mixed with 200 μl of working solution. The mixture was incubated at 37° C. for 30 min, cooled to room temperature and then absorbance measured around 562 nm. The protein concentration was calculated with respect to protein standard curve prepared from assaying standards with known protein concentration.
Luciferase readouts were normalised to both β-galactosidase and protein concentration in the lysate to produce normalised relative luminometer units (RLUs).
To compare across experiments the strength of the promoters was compared to CMV-IE promoter which was driving the same gene as the PBREM-containing constructs, which is included in every experiment.
The PB1-MinTK construct was cloned into the vector pGL4.10 using the KpnI and NcoI restriction sites. This places the promoters directly upstream of the firefly luciferase reporter gene. The PB1-MinTK construct contains the 51 bp enhancer and the MinTK minimal promoter from Herpes Thymidine kinase gene.

B1: PB1-MinTK: promoter: single mouse PBREM element and MinTK minimal promoter, SEQ ID NO: 7 (nucleic acid)
DNA: TCTGTACTTTCCTGACCTTGGCACAGTGCCACCATCAACTTGCCTGACACCGATCCGGCCCCGCCCAGCGTCTTGTCATTGGCGAATTCGAACACGCAGATGCAGTCGGGGCGGCGCGGTCCGAGGTCCACTTCGCATATTAAGGTGACGCGTGTGGCCTCGAACACCGAGCGACCCTGCAGCGACCCGCTTAACAGCGTCAACAGCGTGCCGCAGATCTCGAGGAGCTTGGCGAGATTTTCAGGAGCTAAGGAAGCTAAAC
modifications: PB1-MinTK
Consider B1, for which the “induction of the promoter (luciferase)” value (50 nM or 150 nM TCPOBOP, 24 hrs after induction) is “up to 6 fold”. The “response of the promoter (luciferase)” value (250 nM TCPOBOP) was “did not illicit a response”. The “luciferase expression as ratio of CMV-IE promoter” value (TCPOBOP induced, one PBREM element with MinTK) is reported as 40%. For the setting “cells treated with vehicle (DMSO)”, the “luciferase activity from the promoter (leaky expression)” value is “very little measurable luciferase activity”. Further, the luciferase activity entry (no CAR transfected, 150 nM TCPOBOP) is reported as “no measurable activity”. Also, the luciferase expression result (presence of CAR and 150 nM TCPOBOP) is “high”.

These data come from patent US12472269B2, “Liver-specific inducible promoters and methods of use thereof” (ASKBIO INC., priority 2019, dated 2025).
